Measurements published in PMC4573519 (PLoS ONE, 2015).
Residue numbers refer to the chain shown, from its start.

T1: Fetuin (bovine serum glycoprotein), biotinylated (bovine, UniProt P12763 19-359)
T1 construct: source: bought: Sigma-Aldrich
T1 sequence: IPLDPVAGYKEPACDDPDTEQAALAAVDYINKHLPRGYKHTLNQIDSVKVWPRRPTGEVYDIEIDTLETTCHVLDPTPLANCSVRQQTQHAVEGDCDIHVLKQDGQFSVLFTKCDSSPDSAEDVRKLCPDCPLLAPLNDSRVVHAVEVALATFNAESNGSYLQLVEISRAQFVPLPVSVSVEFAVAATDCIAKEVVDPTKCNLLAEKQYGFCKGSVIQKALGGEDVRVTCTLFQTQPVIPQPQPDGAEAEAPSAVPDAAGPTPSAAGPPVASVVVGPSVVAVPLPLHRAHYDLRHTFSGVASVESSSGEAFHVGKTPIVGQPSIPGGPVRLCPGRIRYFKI

T2: Asialofetuin (fetuin lacking sialic acid), biotinylated (bovine, UniProt P12763 19-359)
T2 construct: source: bought: Sigma-Aldrich
T2 sequence: T1 sequence

B1: S2(PtxB1)S4his recombinant dimer of pertussis toxin subunits S2 (PtxB1 form) and S4 (complex)
chain 1: STPGIVIPPQEQITQHGGPYGRCANKTRALTVAELRGSGDLQEYLRHVTRGWSIFALYDGTYLGGEYGGVIKDGTPGGAFDLKTTFCIMTTRNTGQPATDHYYSNVTATRLLSSTNSRLCAVFVRSGQPVIGACTSPYDGKYWSMYSRLRKMLYLIYVAGISVRVHVSKEEQYYDYEDATFETYALTGISICNPGSSLC
chain 2: DVPYVLVKTNMVVTSVAMKPYEVTPTRMLVCGIAAKLGAAASSPDAHVPFCFGKDLKRPGSSPMEVMLRAVFMQQRPLRMFLGPKQLTFEGKPALELIRMVECSGKQDCP
B2: S3S4his recombinant dimer of pertussis toxin subunits S3 and S4 (complex)
chain 1: VAPGIVIPPKALFTQQGGAYGRCPNGTRALTVAELRGNAELQTYLRQITPGWSIYGLYDGTYLGQAYGGIIKDAPPGAGFIYRETFCITTIYKTGQPAADHYYSKVTATRLLASTNSRLCAVFVRDGQSVIGACASPYEGRYRDMYDALRRLLYMIYMSGLAVRVHVSKEEQYYDYEDATFQTYALTGISLCNPAASIC
chain 2: B1 chain 2
B3: S2(PtxB2)S4his recombinant dimer of pertussis toxin subunits S2 (PtxB2 form) and S4 (complex)
chain 1: B1 chain 1 with G18S
chain 2: B1 chain 2

Assays:
[1] = target: T1, Fetuin (bovine serum glycoprotein), …; experiment: BLI; conditions: both partners purified
[2] = target: T2, Asialofetuin (fetuin lacking sialic …); experiment: BLI; conditions: both partners purified

Binder	binding result [1]	binding result [2]
B1	binds	binds
B2	binds	binds
B3	binds	binds
